According to the supplement of paper PMC11246515:
± gives the standard deviation of the averaged measurements.

Experiment: total protein half-life in vivo (active degradation + dilution); higher = more stable protein
[1] = E. coli NCM3722 delta-clpP delta-lon delta-hslV, growth: N-lim chemostat, doubling time 6 h
[2] = E. coli NCM3722 delta-clpP, growth: N-lim chemostat, doubling time 6 h
[3] = E. coli NCM3722 delta-hslV, growth: N-lim chemostat, doubling time 6 h
[4] = E. coli NCM3722 delta-lon, growth: N-lim chemostat, doubling time 6 h
[5] = E. coli NCM3722 delta-smpB, growth: N-lim chemostat, doubling time 6 h
[6] = wild type E. coli NCM3722, growth: C-lim chemostat, doubling time 3 h
[7] = wild type E. coli NCM3722, growth: C-lim chemostat, doubling time 6 h
[8] = wild type E. coli NCM3722, growth: C-lim chemostat, doubling time 12 h
[9] = wild type E. coli NCM3722, growth: N-lim chemostat, doubling time 6 h
[10] = wild type E. coli NCM3722, growth: N-lim chemostat, doubling time 12 h
[11] = wild type E. coli NCM3722, growth: P-lim chemostat, doubling time 6 h
[12] = wild type E. coli NCM3722, growth: P-lim chemostat, doubling time 12 h

| Sequence | total protein half-life in vivo [1] [h] | total protein half-life in vivo [2] [h] | total protein half-life in vivo [3] [h] | total protein half-life in vivo [4] [h] | total protein half-life in vivo [5] [h] | total protein half-life in vivo [6] [h] | total protein half-life in vivo [7] [h] | total protein half-life in vivo [8] [h] | total protein half-life in vivo [9] [h] | total protein half-life in vivo [10] [h] | total protein half-life in vivo [11] [h] | total protein half-life in vivo [12] [h] |
| --- | --- | --- | --- | --- | --- | --- | --- | --- | --- | --- | --- | --- |
| MTTIVDSNLPVARPSWDHSRLESRIVHLGCGAFHRAHQALYTHHLLESTDSDWGICEVNLMPGNDRVLIENLKKQQLLYTVAEKGAESTELKIIGSMKEALHPEIDGCEGILNAMARPQTAIVSLTVTEKGYCADAASGQLDLNNPLIKHDLENPTAPKSAIGYIVEALRLRREKGLKAFTVMSCDNVRENGHVAKVAVLGLAQARDPQLAAWIEENVTFPCTMVDRIVPAATPETLQEIADQLGVYDPCAIACEPFRQWVIEDNFVNGRPDWDKVGAQFVADVVPFEMMKLRMLNGSHSFLAYLGYLGGYETIADTVTNPAYRKAAFALMMQEQAPTLSMPEGTDLNAYATLLIERFSNPSLRHRTWQIAMDGSQKLPQRLLDPVRLHLQNGGSWRHLALGVAGWMRYTQGVDEQGNAIDVVDPMLAEFQKINAQYQGADRVKALLGLSGIFADDLPQNADFVGAVTAAYQQLCERGARECVAAL | 4.94 ± 2.6 | 3.08 ± 0.24 | 3.228 ± 0.01 | 3.47 ± 0.17 | 2.96 ± 0.24 | 2.91 ± 0.27 | 4.32 ± 0.52 | 7.28 ± 2.2 | 3.33 ± 0.044 | 6.19 ± 2.3 | 5.28 ± 0.23 | 9.27 ± 0.21 |
| MIELVIVSRLLEYPDAALWQHQQEMFEAIAASKNLPKEDAHALGIFLRDLTTMDPLDAQAQYSELFDRGRATSLLLFEHVHGESRDRGQAMVDLLAQYEQHGLQLNSRELPDHLPLYLEYLAQLPQSEAVEGLKDIAPILALLSARLQQRESRYAVLFDLLLKLANTAIDSDKVAEKIADEARDDTPQALDAVWEEEQVKFFADKGCGDSAITAHQRRFAGAVAPQYLNITTGGQH [P0AF26] | 3.83 ± 0.37 | – | 0.814 | 2.04 ± 0.028 | – | – | – | – | – | – | – | – |
| MAKHLFTSESVSEGHPDKIADQISDAVLDAILEQDPKARVACETYVKTGMVLVGGEITTSAWVDIEEITRNTVREIGYVHSDMGFDANSCAVLSAIGKQSPDINQGVDRADPLEQGAGDQGLMFGYATNETDVLMPAPITYAHRLVQRQAEVRKNGTLPWLRPDAKSQVTFQYDDGKIVGIDAVVLSTQHSEEIDQKSLQEAVMEEIIKPILPAEWLTSATKFFINPTGRFVIGGPMGDCGLTGRKIIVDTYGGMARHGGGAFSGKDPSKVDRSAAYAARYVAKNIVAAGLADRCEIQVSYAIGVAEPTSIMVETFGTEKVPSEQLTLLVREFFDLRPYGLIQMLDLLHPIYKETAAYGHFGREHFPWEKTDKAQLLRDAAGLK [P0A817] | 2.78 ± 0.62 | 2.16 ± 0.45 | 2.01 ± 0.14 | 2.41 ± 0.18 | 2.15 ± 0.17 | 2.97 ± 0.16 | 4.63 ± 0.68 | 6.86 ± 0.4 | 2.1 ± 0.1 | 2.72 ± 0.053 | 5.17 ± 0.096 | 9.5 ± 0.32 |
| MELRHLRYFVAVAQALNFTRAAEKLHTSQPSLSSQIRDLENCVGVPLLVRDKRKVALTAAGECFLQDALAILEQAENAKLRARKIVQEDRQLTIGFVPSAEVNLLPKVLPMFRLRQPDTLIELVSLITTQQEEKIRRGELDVGLMRHPVYSPEIDYLELFDEPLVVVLPVDHPLAHEKEITAAQLDGVNFVSTDPVYSGSLAPIVKAWFAQENSQPNIVQVATNILVTMNLVGMGLGVTLIPGYMNNFNTGQVVFRPIAGNVPSIALLMAWKKGEMKPALRDFIAIVQERLASVTA | 5.58 ± 0.39 | – | – | – | – | 0.275 | – | – | – | – | – | – |
| MNNNDLVAKLWKLCDNLRDGGVSYQNYVNELASLLFLKMCKETGQEAEYLPEGYRWDDLKSRIGQEQLQFYRKMLVHLGEDDKKLVQAVFHNVSTTITEPKQITALVSNMDSLDWYNGAHGKSRDDFGDMYEGLLQKNANETKSGAGQYFTPRPLIKTIIHLLKPQPREVVQDPAAGTAGFLIEADRYVKSQTNDLDDLDGDTQDFQIHRAFIGLELVPGTRRLALMNCLLHDIEGNLDHGGAIRLGNTLGSDGENLPKAHIVATNPPFGSAAGTNITRTFVHPTSNKQLCFMQHIIETLHPGGRAAVVVPDNVLFEGGKGTDIRRDLMDKCHLHTILRLPTGIFYAQGVKTNVLFFTKGTVANPNQDKNCTDDVWVYDLRTNMPSFGKRTPFTDEHLQPFERVYGEDPHGLSPRTEGEWSFNAEETEVADSEENKNTDQHLATSRWRKFSREWIRTAKSDSLDISWLKDKDSIDADSLPEPDVLAAEAMGELVQALSELDALMRELGASDEADLQRQLLEEAFGGVKE | 5.68 ± 0.29 | 4.9709 ± 0.0002 | 4.85 ± 0.48 | 4.72 ± 0.37 | 4.17 ± 0.28 | 2.586 ± 0.0099 | 5.252 ± 0.027 | 9.58 ± 1 | 4.476 ± 0.014 | 7.36 ± 0.36 | 5.18 ± 0.24 | 10.5 ± 0.66 |
